Legend:
[1] = target: T1, bovine rhodanese, reduced and carboxymethylated (bovine) (UniProt P00586)
T1 sequence (chain, reduced and carboxymethylated): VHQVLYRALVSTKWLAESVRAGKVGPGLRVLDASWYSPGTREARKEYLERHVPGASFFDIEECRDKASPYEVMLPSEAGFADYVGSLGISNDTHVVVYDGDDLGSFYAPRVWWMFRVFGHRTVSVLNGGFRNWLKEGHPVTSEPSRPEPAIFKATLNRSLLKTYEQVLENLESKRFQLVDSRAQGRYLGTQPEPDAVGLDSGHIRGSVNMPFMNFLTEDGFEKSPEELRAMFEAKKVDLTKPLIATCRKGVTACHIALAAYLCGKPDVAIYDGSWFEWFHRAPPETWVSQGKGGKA

[2] = target: subtilisin, reduced and carboxymethylated
[3] = target: T2, bovine rhodanese, native (bovine) (UniProt P00586)
T2 sequence: T1 sequence (chain, reduced and carboxymethylated)

[4] = target: bovine cytochrome C, native (bovine) (UniProt P62894)
[5] = target: bovine cytochrome C, reduced and carboxymethylated (bovine) (UniProt P62894)
[6] = target: T3, synthetic acceptor peptide Arg-Thr-Pro-Pro-Pro
T3 sequence (peptide): RTPPP

[7] = target: T4, synthetic acceptor peptide Arg-Ser-Pro-Pro-Pro
T4 sequence (peptide): RSPPP

[8] = target: synthetic acceptor peptide Pro-Pro-Ala-D-Ser-Thr-D-Ser-Ala-Pro-Gly

Product formed nmol/min/mg (transfer of N-acetylgalactosamine to protein acceptors) (subtilisin, native): < 0.1 nmol/min/mg | Product formed nmol/min/mg (transfer of N-acetylgalactosamine to protein acceptors) [1]: 3.3 nmol/min/mg | Product formed nmol/min/mg (transfer of N-acetylgalactosamine to protein acceptors) [2]: 0.6 nmol/min/mg | Product formed nmol/min/mg (transfer of N-acetylgalactosamine to protein acceptors) [3]: < 0.1 nmol/min/mg | Product formed nmol/min/mg (transfer of N-acetylgalactosamine to protein acceptors) [4]: < 0.1 nmol/min/mg | Product formed nmol/min/mg (transfer of N-acetylgalactosamine to protein acceptors) (myelin basic protein): 22.2 nmol/min/mg | Product formed nmol/min/mg (transfer of N-acetylgalactosamine to protein acceptors) [5]: < 0.1 nmol/min/mg | Km [6]: 3.3 mM | Vmax /Km M^-1 s^-1 [6]: 183 M⁻¹ s⁻¹ | Vmax /Km M^-1 s^-1 [7]: 0.4 M⁻¹ s⁻¹ | Vmax /Km M^-1 s^-1 [8]: 1.2 M⁻¹ s⁻¹
B1: bovine colostrum UDP-GalNAc:polypeptide, N-acetylgalactosaminyltransferase (purified soluble enzyme) (enzyme)
chain: GLPAGDVLEPVQKPHEGPGEMGKPVVIPKEDQEKMKEMFKINQFNLMASEMIALNRSLPDVRLEGCKTKVYPDNLPTTSVVIVFHNEAWSTLLRTVHSVINRSPRHMLEEIVLVDDASERDFLKRPLESYVKKLKVPVHVIRMEQRSGLIRARLKGAAVSKGQVITFLDAHCECTVGWLEPLLARIKHDRKTVVCPIIDVISDDTFEYMAGSDMTYGGFNWKLNFRWYPVPQREMDRRKGDRTLPVRTPTMAGGLFSIDRDYFQEIGTYDAGMDIWGGENLEISFRIWQCGGTLEIVTCSHVGHVFRKATPYTFPGGTGQIINKNNRRLAEVWMDEFKNFFYIISPGVTKVDYGDISSRLGLRHKLQCRPFSWYLENIYPDSQIPRHYFSLGEIRNVETNQCLDNMARKENEKVGIFNCHGMGGNQVFSYTANKEIRTDDLCLDVSKLNGPVTMLKCHHLKGNQLWEYDPVKLTLQHVNSNQCLDKATDEDSQVPSIRDCSGSRSQQWLLRNVTLPEIF
